Tests used:
[1] = molecular target: T1, human full-length CD33 (CD33^FL) (human, UniProt P20138 18-364); experiment: flow cytometry on REH subline expressing CD33^FL
T1 construct: also called Siglec-3

[2] = molecular target: T1, human full-length CD33 (CD33^FL); experiment: flow cytometry on parental CD33+ ML-1 cells against ML-1 CD33 KO cells (endogenous CD33)

T1 sequence (P20138 18-364): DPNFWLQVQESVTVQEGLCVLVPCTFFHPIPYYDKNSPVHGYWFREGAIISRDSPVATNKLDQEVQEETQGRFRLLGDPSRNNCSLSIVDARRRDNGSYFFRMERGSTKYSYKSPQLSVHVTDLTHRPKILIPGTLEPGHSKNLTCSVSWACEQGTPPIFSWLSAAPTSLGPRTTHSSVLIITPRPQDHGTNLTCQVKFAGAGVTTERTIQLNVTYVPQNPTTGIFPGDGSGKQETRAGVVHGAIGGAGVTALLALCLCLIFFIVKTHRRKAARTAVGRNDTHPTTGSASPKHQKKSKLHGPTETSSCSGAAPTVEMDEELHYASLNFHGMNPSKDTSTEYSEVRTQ

binding result [1] | binding result [2] | Binder
binds | – | 2D3 antibody (human CD33V-set antibody clone, hybridoma-derived) (antibody, V domains shown, also called clone 2D3) VH: EVQLLESGGGLVQPGGSLSLSCAASGFTFSIYAMSWVRQAPGKGLEWVSAISDSGGTTYYADSVKGRFTISRDNSKNMLYLEMNSLRAEDTAIYYCAKRTRYFNGMDVWGQGTTVTVSS VL: EIVMTQSPATLSLSPGERATLSCRASQSGSSSFLSWYQQKPGQAPRLLIYGASTRATGIPARFSGSGSGTDFTLTISSLQPEDFAVYYCQQDYNLPFTFGPGTKVDIK
binds | – | 1H10 antibody (human CD33^PAN antibody clone, hybridoma-derived) (antibody, V domains shown, also called clone 1H10) VH: QVQLVQSGAEVKKPGASVKVSCKGSGYIFTSYDMHWVRQAPGQGLEWMGIIDPSGGSTSYAQKFQGRVTMTRDTSMSTVYMELSSLRSEDTAVYYCTRDYSWSYFDYWGQGTLVTVSS VL: AIQMTQSPSSLSASVGDRVTITCRASQGIRIYLGWYQQKPGKAPKLLIYATSSLQSGVPSRFSGSGSGTDFTLTISSLQPEDFATYYCLQDYNYPWTFGQGTKVEIK
– | binds | 1E6 antibody (human CD33^PAN antibody clone, hybridoma-derived) (antibody, V domains shown, also called clone 1E6) VH: QVQLVESGGGVVQPGRSLRLSCAASGFTFSSYDIHWVRQAPGKGLEWVAVIWYDGSHNYYSDSVKGRFTISRDNSKNTLYLQMNSLRAEDTAVYYCARDYSGSYYDYWGQGTLVTVSS VL: AIQMTQSPSSLSASVGDRVTITCRASQGIRNDLGWYQQKPGKAPKLLIYAASNLQSGVPSRFSGSGSGTDFTLTISSLQPEDFATYYCLQDYSYPRTFGQGTKVEIK
– | binds | 1A9 antibody (human CD33^PAN antibody clone, hybridoma-derived) (antibody, V domains shown, also called clone 1A9) VH: EVQLVESGGGLVQPGGSLRLSCAASGFTFSIYDMHWVRQATGKGLEWVSAIGTAGDTYYAGSVKGRFTISRENAKNSLYLQMNSLRAGDTAVYYCAREYSGYYFDYWGQGTLVTVSS VL: AIQMTQSPSSLSASVGDRVTITCRASQDIRNDLGWYQQKPGKAPKILIYGASSLQSGVPSRFSGSGSGTDFTFTISSLQPEDFATYYCLQEYNYPCTFGQGTKLEIK
– | binds | 1D2 antibody (human CD33^PAN antibody clone, hybridoma-derived) (antibody, V domains shown, also called clone 1D2) VH: QVQLVESGGGVVQPGRSLRLSCAASGFTFSSYDIHWVRQAPGKGLEWVAVIWYDGSQKYYADSVKGRFTISRDNSKNTLYLQMNSLRAEDTAVYYCARDYSGSYYDYWGQGTLVTVSS VL: AIQMTQSPSSLSASVGDRVTITCRASQGIRNDLGWYQQKPGKAPELLIYATSSLQSGVPSRFSGSGSGTDFTLIISSLQPEDFATYYCLQDYSYPRTFGQGTKVEIK
– | binds | 1B9 antibody (human CD33^PAN antibody clone, hybridoma-derived) (antibody, V domains shown, also called clone 1B9) VH: QVQLVESGGGVVQPGRSLRLSCAASGFIFSSYDIHWVRQAPGKGLEWVAVIWYDGSHNYYSDSVKGRFTISRDNSKNTLYLQMNSLRAEDTAVYYCARDYSGSYFDYWGQGTLVTVSS VL: AIQMTQSPSSLSASVGDRVTITCRASQDIRNDLGWYLQRPGKAPKLLIYAASSLQSGVPSRFSGSGSGTDFTLTISSLQPEDFATYYCLQDYSYPRTFGQGTTVEIK
binds | – | 1H8 antibody (human CD33V-set antibody clone, hybridoma-derived) (antibody, V domains shown, also called clone 1H8) VH: QVQLVESGGGVVQPGGSLRLSCAASGFTFGSYGMHWVRQAPGKGLEWVAVIWYDGSNEYYADSVKGRFTVSRDNSKHTLYLQMNRLRAEDTAVYYCARDLDYDSSGGDYWGQGILVLVSS VL: EIVLTQSPDFQSVTPKEKVTITCRASQNIGGNLHWYQQKPDQSPKLLIRYATQPFSGVPSRFGGSGSGTDFTLTINSLEAEDAATYYCHQSSSLPLTFGGGTKVEIK

Source: patent US20260265404A1 (FRED HUTCHINSON CANCER CENTER, published 2026)
